This note sets out measurements from PMC7573975.

The target of the assay is Red_a PSI complex (one PSI monomer of the trimer; chimeric Photosystem I of Synechocystis PCC 6803) (Synechocystis sp. PCC6803 | Synechocystis sp. PCC6803 (endogenous)) (UniProt P29254). The experiment in a line: cryo-EM structure; single particle Cryo-EM of the purified Red_a PSI trimer; 30 mM Tricine-NaOH pH 8, 150 mM NaCl, 0.02% DDM; 1 mg/ml chlorophyll; C1, symmetry expansion and multibody refinement with each monomer as a body.

As usually defined, the stoichiometry N is a count of units in the complex or per binding partner. “Red_a PSI complex (one PSI monomer of the trimer; chimeric Photosystem I of Synechocystis PCC 6803) (from UniProt P29254 1-751; P29255 1-731; P32422 1-81; P72712 1-86; P37277 1-157)” yielded a stoichiometry N of 3.
